Holding throughout (assay): SPR, captured via anti-human kappa, soluble ECD injected
A general note: In SPR one partner is held on a chip, and binding of the other changes the refractive index at the surface.

The target in assay [1] is T1, Soluble human cMet extracellular domain (ECD) protein (human, UniProt P08581 25-932).
T1 construct: extracellular domain; His-tagged

For assay [2], the target named is T2, Soluble human EGFR ECD protein (human, UniProt P00533 25-645).
T2 construct: extracellular domain; His-tagged

In assay [3] the target is T3, Soluble human HER-2 extracellular domain (ECD) protein (human, UniProt P04626 23-652).
T3 construct: extracellular domain; His-tagged

The values below come from patent US20240132626A1 (Eli Lilly, published 2024).

By Kd is commonly meant a measure of binding affinity in units of concentration. The low end stands for a tighter complex, the high end for a looser complex. For orientation: koff means the rate constant with which the complex falls apart. For orientation: kon means the second-order rate constant of association. Read a low kon as slower complex formation.

T1 sequence (P08581 25-932): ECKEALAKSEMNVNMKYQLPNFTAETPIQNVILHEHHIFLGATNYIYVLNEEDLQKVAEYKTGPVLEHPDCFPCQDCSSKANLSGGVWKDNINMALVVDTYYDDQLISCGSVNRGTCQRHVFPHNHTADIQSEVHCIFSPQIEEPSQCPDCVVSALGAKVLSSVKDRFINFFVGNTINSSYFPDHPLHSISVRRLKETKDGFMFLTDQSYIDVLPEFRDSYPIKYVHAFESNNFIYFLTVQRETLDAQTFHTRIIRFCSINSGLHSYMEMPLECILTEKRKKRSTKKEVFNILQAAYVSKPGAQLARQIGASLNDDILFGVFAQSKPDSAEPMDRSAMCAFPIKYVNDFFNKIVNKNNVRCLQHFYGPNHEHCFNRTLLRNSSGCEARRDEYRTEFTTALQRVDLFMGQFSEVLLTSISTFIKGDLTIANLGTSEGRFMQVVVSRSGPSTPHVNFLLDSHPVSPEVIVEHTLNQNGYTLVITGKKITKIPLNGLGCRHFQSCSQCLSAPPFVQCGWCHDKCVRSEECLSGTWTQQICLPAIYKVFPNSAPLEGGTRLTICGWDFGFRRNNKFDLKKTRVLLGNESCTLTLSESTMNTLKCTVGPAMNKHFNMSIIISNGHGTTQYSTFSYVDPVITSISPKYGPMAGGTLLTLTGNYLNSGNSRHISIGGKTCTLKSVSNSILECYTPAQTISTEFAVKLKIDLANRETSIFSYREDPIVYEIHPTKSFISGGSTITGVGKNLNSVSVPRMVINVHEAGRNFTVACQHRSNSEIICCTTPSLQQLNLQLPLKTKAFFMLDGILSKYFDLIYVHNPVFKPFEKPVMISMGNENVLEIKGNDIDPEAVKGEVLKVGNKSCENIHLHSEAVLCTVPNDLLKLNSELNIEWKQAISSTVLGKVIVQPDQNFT

B1: HER-2 X EGFR X cMet TsAb_C_HL (other)
heavy 1: EVQLVESGGGLVQPGGSLRLSCAASGFTFTDYTMDWVRKAPGKGLEWVADVNPNSGGSIYNQEFKGRFTLSVDRSKNTLYLQMNSLRAEDTAVYYCARNLGPSFYFDYWGQGTLVTVSSASTKGPSVFPLAPSSKSTSGGTAALGCLVKDYFPEPVTVSWNSGALTSGVATGPAVLQSSGLYSLSSVVTVPSSSLGTQTYICNVNHKPSNTKVDKKVEPKSCDKTHTCPPCPAPEAAGGPSVFLFPPKPKDTLMISRTPEVTCVVVDVSHEDPEVKFNWYVDGVEVHNAKTKPREQYQSTYRVVSVLTVLHQDWLNGKEYKCKVSNKALPAPIEKTISKAKGQPREPQVSTLPPSREEMTKNQVSLMCLVYGFYPSDIAVEWESNGQPENNYKTTPPVLDSDGSFFLYSVLTVDKSRWQQGNVFSCSVMHEALHNHYTQKSLSLSPGKGGGGSGGGGSGGGGSGGGGSEVQLVESGGGLVQPGGSLRLSCAASGYTFTSYWLHWVRQAPGKGLEWVGMIDPSNSDTRFNPNFKDRFTISADTSKNTAYLQMNSLRAEDTAVYYCATYRSYVTPLDYWGRGTLVTVSSASTKGPSVFPLAPSSKSTSGGTAALGCLVADYFPEPVTVSWNSGALTSGVHTFPAVLQSSGLYSLSSVVTVPSSSLGTQTYICNVNHKPSNTKVDERVEPKSC
light 1: RIQMTQSPSSLSASVGDRVTITCKASQDVSIGVAWYQDKPGKAPKLLIYSASYRYTGVPSRFSGSGSGTDFTLTISSLQPEDFATYYCQQYYIYPYTFGQGTKVEIKGQPKAAPSVTLFPPSSEELQANKATLVCYISDFYPGAVTVAWKADSSPVKAGVETTTPSKQSNNKYAAWSYLSLTPEQWKSHRSYSCQVTHEGSTVEKTVAPTEC
heavy 2: QVQLVQSGAEVKKPGASVKVSCKASGYTFTSHWMHWVRYAPGQGLEWIGEFNPSNGRTNYNEKFKSKATMTVDTSTNTAYMELSSLRSEDTAVYYCASRDYDYDGRYFDYWGQGTLVTVSSASTKGPSVFPLAPCSKSTSGGTAALGCLVKDYFPEPVTVSWNSGALTSGVHTFPAVLQSSGLYSLSSVVTVPSSSLGTQTYICNVNHKPSNTKVDKKVEPDSGDKTHTCPPCPAPEAAGGPSVFLFPPKPKDTLMISRTPEVTCVVVDVSHEDPEVKFNWYVDGVEVHNAKTKPREEQYQSTYRVVSVLTVLHQDWLNGKEYKCKVSNKALPAPIEKTISKAKGQPREPQVYTLPPSRGDMTKNQVQLTCLVKGFYPSDIAVEWESNGQPENNYKTTPPVLDSDGSFFLASKLTVDKSRWQQGNVFSCSVMHEALHNHYTQKSLSLSPGKGGGGSGGGGSGGGGSGGGGSDIQMTQSPSSLSASVGDRVTITCKSSQSLLYTSSQKNYLAWYQQKPGDAPKLLIYWASTRESGVPSRFSGSGSGTDFTLTISSLQPEDFATYYCQQYYAYPWTFGQGTKVEIKRTVAAPSVFIFPPSDKQLKSGTARVVCLLNNFYPREAKVQWKVDNALQSGNSQESVTEQDSKDSTYSLISTLTLSKADYEKHKVYACEVTHQGLSSPVTKSFNRGEC
light 2: DIQMTQSPSSLSASVGDRVTITCSASSSVTYMYWYQRKPGKAPKLLIYDTSNLASGVPSRFSGSGSGTDYTFTISSLQPEDIATYYCQQWSSHIFTFGQGTKVEIKRTVAAPSVFIFPPSKEQLKSGTASVVCLLNNFYPREAKVQWKVDNALQSGNSQESVTEQDSKDSTYSLSSTLTLSKADYEKHKVYACEVTHQGLSSPVTKSFNRGEC
notes: Trispecific IgG-Fab antibody with Fabs from pertuzumab, matuzumab and MetMAb; the anti-cMet Fab is dually tethered at the C-terminus of the heterodimeric Fc
In assay [1], B1 yielded a Kd of 74 nM, a koff of 0.00025 s⁻¹ and an on-rate (kon) of 3400 M⁻¹ s⁻¹. In assay [2], the equilibrium dissociation constant (Kd) came to 10 nM, the koff amounted to 0.0085 s⁻¹ and the kon was determined as 850000 M⁻¹ s⁻¹. Moreover, in assay [3], binding was characterised by a dissociation constant (Kd) of 1.2 nM, the koff was determined as 0.00027 s⁻¹ and the kon came out at 230000 M⁻¹ s⁻¹.

B2: Matuzumab (antibody, V domains shown)
VH: QVQLVQSGAEVKKPGASVKVSCKASGYTFTSHWMHWVRQAPGQGLEWIGEFNPSNGRTNYNEKFKSKATMTVDTSTNTAYMELSSLRSEDTAVYYCASRDYDYDGRYFDYWGQGTLVTVSS
VL: DIQMTQSPSSLSASVGDRVTITCSASSSVTYMYWYQQKPGKAPKLLIYDTSNLASGVPSRFSGSGSGTDYTFTISSLQPEDIATYYCQQWSSHIFTFGQGTKVEIKG
As for B2, in assay [2], binding was put at a Kd of 13 nM, the koff was determined as 0.0083 s⁻¹ and the association rate constant (kon) turned out to be 650000 M⁻¹ s⁻¹.
